# B1: CHCHD6 (parent)
# chain: MYKLSSEQFHEAASKMESTIKPRR
# Variants of: B1
# Assay: protein stability index of a GFP-peptide fusion (GPS, HEK-293T) (PSI 1-6); higher = more stable
# Settings: c terminus: a fixed tail appended
# 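Further: lentivirally expressed fusions sorted by FACS into six bins by GFP to DsRed ratio, PSI derived from sequencing read proportions per bin multiplied by bin number.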
row,Variant,protein stability index
1,MYKLSSEQFHEAASKMENTIKPRR,3.97
2,MYKLSSEQFHEAASKMECTIKPRR,3.99
3,MYKLSSEQFHEAASKMEMTIKPRR,3.31
4,MYKLSSEQFHEAASKMEVTIKPRR,3.77
5,MYKLSSEQFHEAASKMEQTIKPRR,3.47
6,MYKLSSEQFHEAASKMEETIKPRR,3.71
7,MYKLSSEQFHEAASKMEYTIKPRR,3.42
8,MYKLSSEQFHEAASKMELTIKPRR,3.4
9,MYKLSSEQFHEAASKMEWTIKPRR,2.98
10,MYKLSSEQFHEAASKMEATIKPRR,4.41
11,MYKLSSEQFHEAASKMEFTIKPRR,2.78
12,MYKLSSEQFHEAASKMEHTIKPRR,4.51
13,MYKLSSEQFHEAASKMEITIKPRR,2.68
14,MYKLSSEQFHEAASKMEDTIKPRR,4.24
15,MYKLSSEQFHEAASKMEKTIKPRR,3.58
16,MYKLSSEQFHEAASKMEGTIKPRR,3.7
17,MYKLSSEQFHEAASKMERTIKPRR,4.13
18,MYKLSSEQFHEAASKMETTIKPRR,4.1
19,MYKLSSEQFHEAASKMEPTIKPRR,3.8
20,MYKLSSEQFHEAASKMESTIGPRR,3.5
21,MYKLSSEQFHEAASKMESTIIPRR,3.44
22,MYKLSSEQFHEAASKMESTIHPRR,3.86
23,MYKLSSEQFHEAASKMESTIMPRR,3.09
24,MYKLSSEQFHEAASKMESTIVPRR,3.61

row,Variant,protein stability index
1,MYKLSSEQFHEAASKMESTIDPRR,3.69
2,MYKLSSEQFHEAASKMESTIPPRR,4.13
3,MYKLSSEQFHEAASKMESTIEPRR,4.33
4,MYKLSSEQFHEAASKMESTIYPRR,2.33
5,MYKLSSEQFHEAASKMESTIRPRR,3.9
6,MYKLSSEQFHEAASKMESTIWPRR,2.48
7,MYKLSSEQFHEAASKMESTIFPRR,3
8,MYKLSSEQFHEAASKMESTILPRR,3.04
9,MYKLSSEQFHEAASKMESTIQPRR,3.22
10,MYKLSSEQFHEAASKMESTINPRR,3.89
11,MYKLSSEQFHEAASKMESTISPRR,3.68
12,MYKLSSEQFHEAASKMESTITPRR,3.31
13,MYKLSSEQFHEAASKMESTIAPRR,3.49
14,MYKLSSEQFHEAASKMESTICPRR,4.22
15,MYKLSSEQFHEAASKMESTIKPDR,4.44
16,MYKLSSEQFHEAASKMESTIKPER,4.14
17,MYKLSSEQFHEAASKMESTIKPAR,3.99
18,MYKLSSEQFHEAASKMESTIKPFR,3
19,MYKLSSEQFHEAASKMESTIKPCR,3.48
20,MYKLSSEQFHEAASKMESTRKPRR,3.97
21,MYKLSSEQFHEAASKMESTAKPRR,4.38
22,MYKLSSEQFHEAASKMESTTKPRR,4.25
23,MYKLSSEQFHEAASKMESTQKPRR,3.82
24,MYKLSSEQFHEAASKMESTSKPRR,4.21

row,Variant,protein stability index
1,MYKLSSEQFHEAASKMESTNKPRR,3.56
2,MYKLSSEQFHEAASKMESTCKPRR,4.01
3,MYKLSSEQFHEAASKMESTEKPRR,4.74
4,MYKLSSEQFHEAASKMESTHKPRR,3.95
5,MYKLSSEQFHEAASKMESTLKPRR,3.23
6,MYKLSSEQFHEAASKMESTKKPRR,4.05
7,MYKLSSEQFHEAASKMESTPKPRR,4.56
8,MYKLSSEQFHEAASKMESTWKPRR,3.07
9,MYKLSSEQFHEAASKMESTMKPRR,4.21
10,MYKLSSEQFHEAASKMESTYKPRR,3.44
11,MYKLSSEQFHEAASKMESTGKPRR,4.3
12,MYKLSSEQFHEAASKMESTFKPRR,3.51
13,MYKLSSEQFHEAASKMESTVKPRR,4.08
14,MYKLSSEQFHEAASKMESTDKPRR,4.22
15,MYKLSSEQFHEAASKMESEIKPRR,3.89
16,MYKLSSEQFHEAASKMESNIKPRR,4
17,MYKLSSEQFHEAASKMESDIKPRR,3.49
18,MYKLSSEQFHEAASKMESRIKPRR,3.88
19,MYKLSSEQFHEAASKMESKIKPRR,3.77
20,MYKLSSEQFHEAASKMESMIKPRR,3.72
21,MYKLSSEQFHEAASKMESYIKPRR,3.4
22,MYKLSSEQFHEAASKMESGIKPRR,3.76
23,MYKLSSEQFHEAASKMESLIKPRR,3.67
24,MYKLSSEQFHEAASKMESFIKPRR,3.63

row,Variant,protein stability index
1,MYKLSSEQFHEAASKMESIIKPRR,3.12
2,MYKLSSEQFHEAASKMESAIKPRR,3.78
3,MYKLSSEQFHEAASKMESWIKPRR,2.15
4,MYKLSSEQFHEAASKMESHIKPRR,4.29
5,MYKLSSEQFHEAASKMESCIKPRR,3.67
6,MYKLSSEQFHEAASKMESVIKPRR,3.82
7,MYKLSSEQFHEAASKMESPIKPRR,3.68
8,MYKLSSEQFHEAASKMESQIKPRR,4.09
9,MYKLSSEQFHEAASKMESSIKPRR,3.82
10,MYKLSSEQFHEAASCMESTIKPRR,3.54
11,MYKLSSEQFHEAASYMESTIKPRR,3.5
12,MYKLSSEQFHEAASVMESTIKPRR,4.2
13,MYKLSSEQFHEAASHMESTIKPRR,3.75
14,MYKLSSEQFHEAASSMESTIKPRR,4.04
15,MYKLSSEQFHEAASNMESTIKPRR,4.42
16,MYKLSSEQFHEAASIMESTIKPRR,3.67
17,MYKLSSEQFHEAASQMESTIKPRR,4.74
18,MYKLSSEQFHEAASDMESTIKPRR,4.18
19,MYKLSSEQFHEAASRMESTIKPRR,3.72
20,MYKLSSEQFHEAASWMESTIKPRR,3.73
21,MYKLSSEQFHEAASPMESTIKPRR,3.93
22,MYKLSSEQFHEAASTMESTIKPRR,4.37
23,MYKLSSEQFHEAASAMESTIKPRR,3.49
24,MYKLSSEQFHEAASFMESTIKPRR,3.91

row,Variant,protein stability index
1,MYKLSSEQFHEAASMMESTIKPRR,3.84
2,MYKLSSEQFHEAASLMESTIKPRR,3.73
3,MYKLSSEQFHEAASEMESTIKPRR,4.42
4,MYKLSSEQFHEAASGMESTIKPRR,3.82
5,MYKLSSEQFHEAAEKMESTIKPRR,4.12
6,MYKLSSEQFHEAADKMESTIKPRR,3.61
7,MYKLSSEQFHEAAQKMESTIKPRR,4.24
8,MYKLSSEQFHEAATKMESTIKPRR,3.81
9,MYKLSSEQFHEAAYKMESTIKPRR,2.83
10,MYKLSSEQFHEAARKMESTIKPRR,3.48
11,MYKLSSEQFHEAANKMESTIKPRR,3.78
12,MYKLSSEQFHEAAVKMESTIKPRR,4.11
13,MYKLSSEQFHEAAKKMESTIKPRR,3.68
14,MYKLSSEQFHEAAFKMESTIKPRR,3.05
15,MYKLSSEQFHEAAWKMESTIKPRR,3.18
16,MYKLSSEQFHEAAMKMESTIKPRR,3.47
17,MYKLSSEQFHEAAIKMESTIKPRR,2.86
18,MYKLSSEQFHEAACKMESTIKPRR,3.29
19,MYKLSSEQFHEAAGKMESTIKPRR,3.87
20,MYKLSSEQFHEAAHKMESTIKPRR,3.9
21,MYKLSSEQFHEAALKMESTIKPRR,3.1
22,MYKLSSEQFHEAAAKMESTIKPRR,3.56
23,MYKLSSEQFHEAAPKMESTIKPRR,3.82
24,MYKLSSEQFHEAASKMESTIKIRR,3.53

row,Variant,protein stability index
1,MYKLSSEQFHEAASKMESTIKQRR,3.86
2,MYKLSSEQFHEAASKMESTIKARR,3.46
3,MYKLSSEQFHEAASKMESTIKWRR,2.58
4,MYKLSSEQFHEAASKMESTIKYRR,3
5,MYKLSSEQFHEAASKMESTIKGRR,3.56
6,MYKLSSEQFHEAASKMESTIKVRR,3.6
7,MYKLSSEQFHEAASKMESTIKRRR,3.83
8,MYKLSSEQFHEAASKMESTIKDRR,4.26
9,MYKLSSEQFHEAASKMESTIKFRR,3
10,MYKLSSEQFHEAASKMESTIKERR,3.93
11,MYKLSSEQFHEAASKMESTIKHRR,3.91
12,MYKLSSEQFHEAASKMESTIKCRR,4.05
13,MYKLSSEQFHEAASKMESTIKKRR,3.8
14,MYKLSSEQFHEAASKMESTIKLRR,3.92
15,MYKLSSEQFHEAASKMESTIKNRR,3.46
16,MYKLSSEQFHEAASKMESTIKSRR,4.03
17,MYKLSSEQFHEAASKMESTIKMRR,3.86
18,MYKLSSEQFHEAASKMESTIKTRR,4.09
19,MYKLSSEQFHEAASKMASTIKPRR,3.24
20,MYKLSSEQFHEAASKMRSTIKPRR,3.29
21,MYKLSSEQFHEAASKMLSTIKPRR,3.08
22,MYKLSSEQFHEAASKMTSTIKPRR,3.19
23,MYKLSSEQFHEAASKMGSTIKPRR,4.03
24,MYKLSSEQFHEAASKMDSTIKPRR,4

row,Variant,protein stability index
1,MYKLSSEQFHEAASKMQSTIKPRR,3.71
2,MYKLSSEQFHEAASKMCSTIKPRR,3.46
3,MYKLSSEQFHEAASKMISTIKPRR,3.85
4,MYKLSSEQFHEAASKMPSTIKPRR,3.15
5,MYKLSSEQFHEAASKMMSTIKPRR,3.55
6,MYKLSSEQFHEAASKMYSTIKPRR,3
7,MYKLSSEQFHEAASKMKSTIKPRR,2.73
8,MYKLSSEQFHEAASKMHSTIKPRR,2.92
9,MYKLSSEQFHEAASKMNSTIKPRR,3.57
10,MYKLSSEQFHEAASKMSSTIKPRR,3.71
11,MYKLSSEQFHEAASKMVSTIKPRR,3.27
12,MYKLSSEQFHEAASKMWSTIKPRR,2.4
13,MYKLSSEQFHEAASKMFSTIKPRR,2.69
14,MYKLSSEQFHEARSKMESTIKPRR,3.66
15,MYKLSSEQFHEAQSKMESTIKPRR,3.61
16,MYKLSSEQFHEANSKMESTIKPRR,4.24
17,MYKLSSEQFHEAYSKMESTIKPRR,3.36
18,MYKLSSEQFHEALSKMESTIKPRR,3.09
19,MYKLSSEQFHEAMSKMESTIKPRR,2.59
20,MYKLSSEQFHEATSKMESTIKPRR,4.02
21,MYKLSSEQFHEAWSKMESTIKPRR,2.95
22,MYKLSSEQFHEAKSKMESTIKPRR,3.86
23,MYKLSSEQFHEAVSKMESTIKPRR,4.02
24,MYKLSSEQFHEAPSKMESTIKPRR,3.81

row,Variant,protein stability index
1,MYKLSSEQFHEASSKMESTIKPRR,3.81
2,MYKLSSEQFHEAASKAESTIKPRR,4.17
3,MYKLSSEQFHEAASKGESTIKPRR,3.77
4,MYKLSSEQFHEAASKVESTIKPRR,4.46
5,MYKLSSEQFHEAASKTESTIKPRR,4.34
6,MYKLSSEQFHEAASKWESTIKPRR,3.41
7,MYKLSSEQFHEAASKCESTIKPRR,3.58
8,MYKLSSEQFHEAASKPESTIKPRR,4.31
9,MYKLSSEQFHEAASKNESTIKPRR,4.17
10,MYKLSSEQFHEAASKEESTIKPRR,4.55
11,MYKLSSEQFHEAASKHESTIKPRR,4.44
12,MYKLSSEQFHEAASKKESTIKPRR,4.31
13,MYKLSSEQFHEAASKRESTIKPRR,3.94
14,MYKLSSEQFHEAASKFESTIKPRR,3.53
15,MYKLSSEQFHEAASKLESTIKPRR,3.41
16,MYKLSSEQFHEAASKYESTIKPRR,3.45
17,MYKLSSEQFHEAASKQESTIKPRR,4.47
18,MYKLSSEQFHEAASKIESTIKPRR,3.53
19,MYKLSSEQFHEAASKSESTIKPRR,4.16
20,MYKLSSEQFHEAASKDESTIKPRR,4.09
